Test results taken from patent US20260125472A1 (HEFEI TG IMMUNOPHARMA, published 2026).

Key:
CD3E&D protein = molecular target: T1, CD3E&D protein (UniProt P04234 22-105); experiment: ELISA, coated CD3E&D protein, OD450
T1 construct: Purchased from Acro; also called CD3 E&D antigens; CD3E&D antigen protein
From the text: In this example, the binding properties of the CD3×Trop2 and CD3×PDL1 bispecific antibody (the production method and the amino acid sequences of the heavy and light chains were shown in Example 1) were detected by using ELISA. The CD3E&D, Trop2, or PDL1 protein was coated onto 96-well plates by inventors, and the strength of the signal after the addition of the antibody was used to determine the binding properties of the antibody and the corresponding protein.
(1) CD3E&D protein (purchased from Acro) was diluted to 2 μg/ml with PBS buffer, added to a 96-well plate at a volume of 100 μL/well, and placed at 4° C. overnight. The PBS buffer in the 96-well plate was aspirated, and the plate was washed 6 times with PBST (pH 7.2 PBS containing 0.1% Tween 20) buffer. Then, 200 μL/well PBS/10% BSA was added and incubated at 37° C. for 2 h for blocking. The blocking solution was removed, and the plate was washed 6 times with PBST. […] The absorbance was read at 450 nm using a microplate reader.

CD3 on CD8 T cells = molecular target: T2, CD3 on CD8 T cells (Homo sapiens (Human), UniProt P07766 23-207); experiment: flow cytometry, CD8 T cells in PBMCs, MFI [panel B]
T2 construct: Native CD3 complex on CD8 T cells among PBMCs; also called T cells (PBMCs gated with anti-human CD8 antibody)
T2 sequence (P07766 23-207 limits assumed): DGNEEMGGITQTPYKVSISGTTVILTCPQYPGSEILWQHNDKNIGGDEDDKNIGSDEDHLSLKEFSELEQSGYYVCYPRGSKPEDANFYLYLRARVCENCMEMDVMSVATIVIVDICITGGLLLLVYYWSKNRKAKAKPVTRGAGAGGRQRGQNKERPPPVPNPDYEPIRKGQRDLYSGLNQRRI
Protocol: (1) PBMCs were diluted to 2×10⁶/ml with PBS and added to a 1.5 ml EP tube at 100 μl/tube, goat serum was added thereto at 10 μl/tube. The cells were blocked at 4° C. for 30 min. The serially diluted bispecific antibodies, Cross3×Trop2, Cross303×Trop2, Cross307×Trop2, Cross308×Trop2, Cross309×Trop2, Cross310×Trop2, Cross311×Trop2, Cross312×Trop2, Cross313×Trop2, Cross314×Trop2, Cross316×Trop2, Cross317×Trop2, Cross318×Trop2, Cross323×Trop2, Cross325×Trop2, Cross326×Trop2, Cross3×PDL1, Cross313×PDL1, Cross316×PDL1, Cross325×PDL1, and control hIgG1LALA (purchased from Bio-Tech) were added and incubated at 4° C. for 30 min. 1 ml of PBS was added to the EP tube, followed by centrifugation at 3500 rpm for 5 min at 4° C. The supernatant was discarded, and the system was washed again with PBS. After centrifugation, the supernatant was discarded, and the cells were resuspended with PBS at 100 μl/tube. 1 μl/tube Alexa-647-labeled goat anti-human IgG secondary antibody (purchased from Jackson lab) and 0.5 μl/tube PerCP-Cy5.5-labeled anti-human CD8 antibody were added and incubated at 4° C. in the dark for 30 min. The cells were washed twice with PBS. After centrifugation, the supernatant was discarded. The cells were resuspended with 200 μl/tube of PBS and assay is performed by flow cytometry.

T1 sequence (chain, as listed by the source limits assumed, chain 1 of 2): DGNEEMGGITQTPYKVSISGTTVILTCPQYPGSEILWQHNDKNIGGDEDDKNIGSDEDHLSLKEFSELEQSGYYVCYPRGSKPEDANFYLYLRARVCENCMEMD
T1 sequence (P04234 22-105 limits assumed, chain 2 of 2): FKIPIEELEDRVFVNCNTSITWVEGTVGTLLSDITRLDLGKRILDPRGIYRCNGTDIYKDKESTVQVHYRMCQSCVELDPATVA

- EC50 (read off the curve) (CD3E&D protein): ~0.04 µg/mL
- EC50 (read off the curve) (CD3 on CD8 T cells): ~4 µg/mL
B1: Cross311×Trop2 (bispecific antibody)
scFv: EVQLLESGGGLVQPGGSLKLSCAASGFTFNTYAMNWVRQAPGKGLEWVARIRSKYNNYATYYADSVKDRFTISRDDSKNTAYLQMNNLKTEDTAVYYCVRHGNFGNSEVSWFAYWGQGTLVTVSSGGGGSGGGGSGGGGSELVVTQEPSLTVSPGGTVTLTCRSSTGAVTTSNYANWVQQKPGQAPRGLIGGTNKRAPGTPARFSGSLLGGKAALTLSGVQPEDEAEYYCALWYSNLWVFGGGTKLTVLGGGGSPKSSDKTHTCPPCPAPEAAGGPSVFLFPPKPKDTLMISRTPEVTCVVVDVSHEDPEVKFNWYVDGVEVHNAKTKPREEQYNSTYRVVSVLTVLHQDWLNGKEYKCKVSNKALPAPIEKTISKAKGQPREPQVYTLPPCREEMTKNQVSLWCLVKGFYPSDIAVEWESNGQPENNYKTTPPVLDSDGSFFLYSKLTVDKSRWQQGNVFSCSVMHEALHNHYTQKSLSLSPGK
heavy: QVQLQQSGSELKKPGASVKVSCKASGYTFTNYGMNWVKQAPGQGLKWMGWINTYTGEPTYTDDFKGRFAFSLDTSVSTAYLQISSLKADDTAVYFCARGGFGSSYWYFDVWGQGSLVTVSSASTKGPSVFPLAPSSKSTSGGTAALGCLVKDYFPEPVTVSWNSGALTSGVHTFPAVLQSSGLYSLSSVVTVPSSSLGTQTYICNVNHKPSNTKVDKKVEPKSSDKTHTCPPCPAPEAAGGPSVFLFPPKPKDTLMISRTPEVTCVVVDVSHEDPEVKFNWYVDGVEVHNAKTKPREEQYNSTYRVVSVLTVLHQDWLNGKEYKCKVSNKALPAPIEKTISKAKGQPREPQVCTLPPSREEMTKNQVSLSCAVKGFYPSDIAVEWESNGQPENNYKTTPPVLDSDGSFFLVSKLTVDKSRWQQGNVFSCSVMHEALHNHYTQKSLSLSPGK
light: DIQLTQSPSSLSASVGDRVSITCKASQDVSIAVAWYQQKPGKAPKLLIYSASYRYTGVPDRFSGSGSGTDFTLTISSLQPEDFAVYYCQQHYITPLTFGAGTKVEIKRTVAAPSVFIFPPSDEQLKSGTASVVCLLNNFYPREAKVQWKVDNALQSGNSQESVTEQDSKDSTYSLSSTLTLSKADYEKHKVYACEVTHQGLSSPVTKSFNRGEC
